Reference: publication PMC11144202, “Highly biased agonism for GPCR ligands via nanobody tethering” (Nature Communications, 2024)

Assays:
[1] = target: T1, glucagon-like peptide-1 receptor (GLP1R) (UniProt P43220 24-463); experiment: SPR; GLP1R-ECD; replicate 2
T1 chain: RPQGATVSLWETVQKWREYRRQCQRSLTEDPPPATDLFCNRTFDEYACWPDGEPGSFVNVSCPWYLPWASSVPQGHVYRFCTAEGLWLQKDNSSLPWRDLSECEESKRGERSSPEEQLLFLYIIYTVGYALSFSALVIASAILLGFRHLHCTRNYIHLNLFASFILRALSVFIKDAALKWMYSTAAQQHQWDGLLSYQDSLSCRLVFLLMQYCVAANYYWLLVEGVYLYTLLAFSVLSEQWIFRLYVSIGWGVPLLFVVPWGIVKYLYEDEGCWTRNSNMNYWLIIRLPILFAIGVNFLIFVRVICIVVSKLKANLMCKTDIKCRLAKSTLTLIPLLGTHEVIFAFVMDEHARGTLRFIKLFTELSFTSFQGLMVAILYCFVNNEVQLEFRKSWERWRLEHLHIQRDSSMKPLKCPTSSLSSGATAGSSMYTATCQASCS

[2] = target: T1, glucagon-like peptide-1 receptor (GLP1R); experiment: SPR; GLP1R-ECD; replicate 1
[3] = target: T1, glucagon-like peptide-1 receptor (GLP1R); experiment: SPR; GLP1R-ECD; replicate 2
[4] = target: T1, glucagon-like peptide-1 receptor (GLP1R); experiment: SPR; GLP1R-ECD; replicate 1
[5] = target: T2, PTHR1 extracellular domain (ECD); experiment: SPR; replicate 2; biotinylated Nb immobilized
T2 chain: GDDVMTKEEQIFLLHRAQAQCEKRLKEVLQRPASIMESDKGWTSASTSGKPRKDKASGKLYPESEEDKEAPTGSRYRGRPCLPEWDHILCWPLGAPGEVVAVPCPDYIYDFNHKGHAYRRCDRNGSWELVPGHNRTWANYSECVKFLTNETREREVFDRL

[6] = target: T3, PTHR1 extracellular domain (ECD) (Homo sapiens); experiment: SPR; Nb_(PTHR1) and PTHR1 ECD; details in Supplementary Methods; settings: both partners purified
T3 construct: extracellular domain of the type-1 parathyroid hormone receptor; also called PTHR1 ECD; PTHR1 (ECD)
T3 chain: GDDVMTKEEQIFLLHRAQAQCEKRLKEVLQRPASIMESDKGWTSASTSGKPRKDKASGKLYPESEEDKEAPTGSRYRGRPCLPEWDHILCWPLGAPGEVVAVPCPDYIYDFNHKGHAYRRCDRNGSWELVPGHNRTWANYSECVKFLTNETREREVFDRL

[7] = target: T2, PTHR1 extracellular domain (ECD); experiment: SPR; mean of two experiments; biotinylated Nb immobilized
[8] = target: T2, PTHR1 extracellular domain (ECD); experiment: SPR; replicate 2; biotinylated Nb immobilized
[9] = target: T2, PTHR1 extracellular domain (ECD); experiment: SPR; replicate 1; biotinylated Nb immobilized
[10] = target: T2, PTHR1 extracellular domain (ECD); experiment: SPR; replicate 1; biotinylated Nb immobilized
[11] = target: T4, native human type-1 parathyroid hormone receptor (hPTHR1) (Homo sapiens, UniProt Q03431); experiment: flow cytometry on cells; biotin-labeled Nbs or conjugates (500 nM in Fig. 4A, or varying concentrations) incubated 30 min on ice in PBS with 2% BSA with HEK293 cells stably expressing the receptor; detection with streptavidin-APC; settings: one partner purified
T4 construct: type-1 parathyroid hormone receptor, human, unmodified receptor on the cell surface; also called WT PTHR1; WT-PTHR1; source: HEK293 (GS22) cells, stably expressing, on cells
T4 sequence (Q03431 27-593): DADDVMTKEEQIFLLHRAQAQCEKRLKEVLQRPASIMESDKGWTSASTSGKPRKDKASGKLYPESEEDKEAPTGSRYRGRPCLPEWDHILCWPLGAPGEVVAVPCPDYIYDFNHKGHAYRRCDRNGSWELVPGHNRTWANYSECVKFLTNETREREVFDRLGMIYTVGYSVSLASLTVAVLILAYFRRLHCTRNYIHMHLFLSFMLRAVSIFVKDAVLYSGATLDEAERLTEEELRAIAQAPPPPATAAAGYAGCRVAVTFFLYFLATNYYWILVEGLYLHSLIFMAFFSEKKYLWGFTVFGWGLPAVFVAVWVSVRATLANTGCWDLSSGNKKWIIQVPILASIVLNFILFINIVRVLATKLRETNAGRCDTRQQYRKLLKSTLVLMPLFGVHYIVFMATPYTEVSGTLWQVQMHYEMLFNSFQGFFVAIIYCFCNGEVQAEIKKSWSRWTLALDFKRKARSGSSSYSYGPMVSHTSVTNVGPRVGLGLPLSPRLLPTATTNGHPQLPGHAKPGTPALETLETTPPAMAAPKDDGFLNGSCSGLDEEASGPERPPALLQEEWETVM

[12] = target: T5, nanoluciferase-PTHR1 fusion (nLuc-PTHR1) (Homo sapiens, UniProt Q03431); experiment: FRET or BRET; competition on cells expressing nLuc-PTHR1: Nb_(PTHR1)-TMR (1 uM) followed by unlabeled ligand (2 uM), or varying unlabeled ligand added together with Nb_(PTHR1)-TMR (300 nM); settings: one partner purified
T5 construct: type-1 parathyroid hormone receptor with nanoluciferase fused to the receptor N-terminus; source: cell line stably expressing the construct, on cells; not shown: nanoluciferase, N-terminal, kept
T5 sequence (Q03431 27-593): as above

B1: Nb_(GLP1R) (VHH)
VHH: EVQLVESGGGLVQAGGSLRLSCAASGNTYSYKVMGWFRQAPGKEREFVGIIIRNGDTTYYADSVKGRFTISADNAKNTVYLQMNSLKPEDTAVYYCAASPKYMTAYERSYDWGQGTQVTVSS
For B1, which Kd [1] is on record?
The Kd was 32 nM.

What about the koff [2] of the same binder?
Its koff is 0.0041 s⁻¹.

And the koff [3]?
The koff was 0.0013 s⁻¹.

And the Kd [4]?
The Kd was 24 nM.

B2: Nb_(PTHR1), unlabeled (VHH)
VHH: EVQLVESGGGLVQAGGSLRLSCAASGNIFANNIMGWYRQPPGKEREFVAHVSHDGDSMYAVSVKGRFAISRKDATNLYLQMNSLKPEDTAIYFCRLLNIPTQGRMEGFWGQGTQVTVSS
notes: Expressed from pET26b in frame with pelB and His6; the Nbs for sortagging bear LPETGG followed by His6 at the C-terminus; also called VHH_(PTHR); source: E. coli BL21(DE3), purified (Ni-NTA, SEC)
How did the koff [5] turn out when B2 was run?
Its koff is 0.0015 s⁻¹.

And the Kd [6]?
The Kd was roughly 1 nM.

And the Kd [7]?
The Kd was 0.7 nM.

What about the Kd [8] of the same binder?
The Kd was 0.9 nM.

What about the Kd [9] of the same binder?
Its Kd is 0.5 nM.

What about the koff [10] of the same binder?
The koff was 0.0065 s⁻¹.

B3: Nb_(PTHR1) labeled with biotin (VHH)
VHH: EVQLVESGGGLVQAGGSLRLSCAASGNIFANNIMGWYRQPPGKEREFVAHVSHDGDSMYAVSVKGRFAISRKDATNLYLQMNSLKPEDTAIYFCRLLNIPTQGRMEGFWGQGTQVTVSS
notes: as the chain of m5; His6 is lost in the sortase reaction (unreacted protein is captured on nickel NTA beads); also called biotin-labeled Nb_(PTHR1); source: E. coli BL21(DE3), purified (Ni-NTA, SEC), labeled by sortagging; not shown: His6, C-terminal, cleaved
Does B3 bind [11]?
Result: binds

B4: Nb_(PTHR1)-TMR (tetramethylrhodamine-labeled Nb_(PTHR1)) (VHH)
VHH: EVQLVESGGGLVQAGGSLRLSCAASGNIFANNIMGWYRQPPGKEREFVAHVSHDGDSMYAVSVKGRFAISRKDATNLYLQMNSLKPEDTAIYFCRLLNIPTQGRMEGFWGQGTQVTVSS
notes: as the chain of m5; His6 is lost in the sortase reaction; also called TMR-Nb_(PTHR1); source: E. coli BL21(DE3), purified (Ni-NTA, SEC), labeled by sortagging; not shown: His6, C-terminal, cleaved
Does B4 bind [12]?
Result: binds

B5: Nb_(PTHR1-X2) labeled with biotin (VHH)
VHH: EVQLVESGGGLVQAGGSLRLSCAASGLTFSNYAMGWFRQAPGKEREWVASINWSGGSTYYEDSVEGRFTISRDNAKNTVNLQMNSLKPEDTAVYYCAAKRGHYSREYDYWGQGTQVTVSS
notes: as the chain of m8; His6 is lost in the sortase reaction; also called Nb_(PTHR-X2); source: E. coli BL21(DE3), purified (Ni-NTA, SEC), labeled by sortagging; not shown: His6, C-terminal, cleaved
Does B5 bind [11]?
Result: binds
